In US20220227882A1 (TRUSTEES OF TUFTS COLLEGE, published 2022):

T1: Recombinant human ADAM9 (R&D Systems, 939-AD-020) (human, UniProt Q13443 29-697)
T1 sequence (looked up): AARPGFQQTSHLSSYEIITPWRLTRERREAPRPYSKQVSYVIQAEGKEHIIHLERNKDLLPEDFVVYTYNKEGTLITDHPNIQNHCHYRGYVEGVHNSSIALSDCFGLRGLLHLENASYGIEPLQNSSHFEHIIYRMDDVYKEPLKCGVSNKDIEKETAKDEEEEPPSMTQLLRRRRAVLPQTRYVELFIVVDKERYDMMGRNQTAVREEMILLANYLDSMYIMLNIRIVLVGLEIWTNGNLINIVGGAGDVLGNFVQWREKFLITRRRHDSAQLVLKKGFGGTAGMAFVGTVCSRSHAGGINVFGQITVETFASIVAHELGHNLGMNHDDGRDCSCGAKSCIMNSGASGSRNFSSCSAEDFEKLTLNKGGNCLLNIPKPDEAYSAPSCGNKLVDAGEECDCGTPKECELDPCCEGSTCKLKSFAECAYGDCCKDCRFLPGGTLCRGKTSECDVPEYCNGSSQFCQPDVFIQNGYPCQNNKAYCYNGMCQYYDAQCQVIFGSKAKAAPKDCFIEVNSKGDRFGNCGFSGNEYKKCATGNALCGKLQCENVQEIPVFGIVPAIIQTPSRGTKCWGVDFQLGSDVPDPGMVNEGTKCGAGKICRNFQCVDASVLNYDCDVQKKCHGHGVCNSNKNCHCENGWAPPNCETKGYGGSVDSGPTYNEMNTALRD

T2: G445A (Homo sapiens, UniProt P78325)
T2 construct: expressed on HEK293 cells; also called human ADAM8 point mutant G445A
T2 sequence (ADAM8, looked up): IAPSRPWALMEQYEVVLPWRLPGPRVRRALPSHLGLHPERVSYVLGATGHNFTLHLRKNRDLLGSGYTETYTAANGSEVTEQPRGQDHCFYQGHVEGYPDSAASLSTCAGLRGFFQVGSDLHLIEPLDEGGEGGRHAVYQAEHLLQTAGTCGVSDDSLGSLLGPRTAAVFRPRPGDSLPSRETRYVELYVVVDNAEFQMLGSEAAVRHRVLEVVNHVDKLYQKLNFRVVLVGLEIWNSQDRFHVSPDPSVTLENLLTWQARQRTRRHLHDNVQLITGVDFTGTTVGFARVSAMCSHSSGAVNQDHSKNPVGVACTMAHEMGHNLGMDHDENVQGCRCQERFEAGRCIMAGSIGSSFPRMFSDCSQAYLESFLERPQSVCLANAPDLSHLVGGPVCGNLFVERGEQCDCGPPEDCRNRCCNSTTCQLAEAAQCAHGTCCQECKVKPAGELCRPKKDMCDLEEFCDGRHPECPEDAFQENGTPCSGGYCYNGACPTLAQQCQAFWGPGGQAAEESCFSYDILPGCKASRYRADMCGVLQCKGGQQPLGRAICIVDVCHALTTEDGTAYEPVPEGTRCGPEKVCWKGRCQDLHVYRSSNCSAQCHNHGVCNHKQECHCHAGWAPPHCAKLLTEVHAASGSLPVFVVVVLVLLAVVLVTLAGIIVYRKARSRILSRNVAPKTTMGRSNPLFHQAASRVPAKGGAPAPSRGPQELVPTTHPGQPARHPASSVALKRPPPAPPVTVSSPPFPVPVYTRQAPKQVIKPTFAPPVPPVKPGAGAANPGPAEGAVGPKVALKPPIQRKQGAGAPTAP

B1: ADP3 (antibody, IgG1, V domains shown)
VH: EVKLEESGGGLVQPGGSMKLSCAASGFTFSDAWMDWVRQSPEKGLEWVAEIRGKVNNLATYYVESVKGRFTISRDDSKSSVYLQMNSLRAEDTGIYYCLGRYDATYAMDYWGQGTSVTVSS
VL: DVVMTQTPLSLPVSLGDQASISCRSSQSLVHSDGNTYLHWYLQKPGQSPKLLIYKLSNRFSGVPDRFSGSGSGTDFTLKISRVEAEDLGVYFCSQSTHVPWTFGGGTKLEIK
B2: ADP13 Fab (Fab, V domains shown)
VH: EVQLQQSGPEMVKPGTSVKISCKASGYTFTDYYINWVKQSHGKSLEWIGDISPNIGGATYNPKFKGKAILTVDKSARTAYMELRSLTSEDSAVYCCTRGGSSYPYFYAMDYWGQGTSVTVSS
VL: DIVMSQSPSSLAVSVGEKVTMSCKSSQSLLYSSNQKKYLAWYQQKPGQSPKLLIYWASTRESGVPDRFTGSGSGTDFTLTISSVKAEDLAVYYCQQFYSYPYTFGGGTKLEINR

Columns and labels:
[1] = target: T1, Recombinant human ADAM9 (R&D Systems, …); experiment: ELISA, recombinant ADAM9
Description: ELISA assays were also used to test hybridoma clones, subclones and purified ADP antibodies for specificity of ADAM8 binding, i.e., binding to rHuADAM8 (Acro Biosystems, AD8-H5223) was compared to binding to closely related recombinant human ADAM proteins: […], ADAM12 (Acro Biosystems, AD2-H5228) and ADAM15 (Sino Biological, 10517-H08H). For analysis of clones and subclones, 50 μl of cell supernatants were used. A test bleed sample (1:1000) was used as a positive control. Hybridoma culture medium or a pre-bleed serum sample (1:1000) was used as a negative control. Purified mouse ADPs were assessed at 1 μg/ml vs normal mouse IgG and with a test bleed sample as a positive control. ADP binding was detected with a goat anti-mouse IgG (Fc specific)-peroxidase antibody (1:5000, Sigma-Aldrich, A0168).

G445A = target: T2, G445A; experiment: high-throughput flow cytometry, HEK293 cells with mutant ADAM8, high stringency; range in parentheses; closed box
Description: A variety of experimental parameters were optimized for high-throughput flow cytometry including blocking buffer, and primary and secondary antibody concentrations, to identify the optimal conditions for screening. Through these studies ADP2 and ADP13 were determined to be high affinity binding antibodies.
Thus, for these studies antigen-binding fragments (Fabs) of ADP2 and ADP13, which bind with lower affinity than the full antibody, were generated. In addition, higher binding stringency conditions were tested, such as increased pH, salinity, and temperature, and/or increased washing, to weaken binding sufficiently to allow identification of critical binding residues in flow cytometry. The final experimental flow cytometry conditions were: primary antibody incubation with ADP2 Fab (0.50 μg/ml), ADP13 Fab (5.00 μg/ml) and Control Ab (0.16 μg/ml) for 60 minutes in flow cytometry buffer containing 10% goat serum in PBS (Ca²⁺ and Mg²⁺ free). […] Samples were washed three times after primary antibody incubation and twice after secondary antibody incubation with PBS (Ca²⁺ and Mg′ free). Next, HEK293 cells expressing WT or mutated ADAM8 proteins or EV DNA were incubated with ADP2 or ADP13 Fabs or Control Ab at their optimal concentrations. Fab binding was detected using Alexa Fluor 488-conjugated secondary antibodies and mean cellular fluorescence determined using the Intellicyt iQue flow cytometry platform. […] This counter-screen strategy facilitates the exclusion of mutants that are locally misfolded or that have an expression defect. Binding of each test Fab to each mutant clone in the alanine scanning library was determined, in duplicate, by high-throughput flow cytometry.

Row | Binder | binding result [1] | Binding Reactivity (% WT) (G445A)
1 | B1 | no binding (tested: 1 µg/ml) | 
2 | B2 |  | 9.7
